Laboratory results published in article PMC8691596.
Where “and” joins values, the source holds several entries; their conditions need not be identical. Identical values can stand only once. Like-named read-outs stand apart in the source and are kept apart here.

Legend:
[1] = biological target: human FcRn, histidine-tagged recombinant (human) (UniProt P55899); experiment: SPR; human FcRn immobilised directly on CM5 (EDC/NHS); antibody injected at 20 μg/mL (dose response in Fig 4); HBS-EP+ pH 6.0, 25°C; response normalised to wild type
[2] = biological target: rat FcγRI (CD64), histidine-tagged recombinant (rat); experiment: SPR; His-tagged Fc receptor captured by anti-histidine antibody immobilised on CM5; antibody injected at 100 μg/mL for 1 min; response about 5 s before end of injection, blank subtracted; 25°C, HBS-EP+; Biacore T200
[3] = biological target: human FcγRIIIa (CD16a) V158 allele, histidine-tagged recombinant (human) (UniProt P08637); experiment: as above
[4] = biological target: human FcγRIIb (CD32b), histidine-tagged recombinant (human) (UniProt P31994); experiment: as above
[5] = biological target: mouse FcγRI (CD64), histidine-tagged recombinant (mouse) (UniProt P26151); experiment: as above
[6] = biological target: human FcγRIIa (CD32a) R131 allele, histidine-tagged recombinant (human) (UniProt P12318); experiment: as above
[7] = biological target: human FcγRI (CD64), histidine-tagged recombinant (human) (UniProt P12314); experiment: as above
[8] = biological target: human FcγRIIIb (CD16b) NA2 allele, histidine-tagged recombinant (human) (UniProt O75015); experiment: as above
[9] = biological target: human FcγRIIIa (CD16a) F158 allele, histidine-tagged recombinant (human) (UniProt P08637); experiment: as above
[10] = biological target: human FcγRIIIa (CD16a) V158 allele, histidine-tagged recombinant (human) (UniProt P08637)
[11] = biological target: human FcγRIIb (CD32b), histidine-tagged recombinant (human) (UniProt P31994)
[12] = biological target: human FcγRI (CD64), histidine-tagged recombinant (human) (UniProt P12314)
[13] = biological target: human FcγRI (CD64), histidine-tagged recombinant (human) (UniProt P12314); experiment: SPR; His-tagged Fc receptor captured by anti-histidine antibody immobilised on CM5; antibody injected at 100 μg/mL for 1 min; response about 5 s before end of injection, blank subtracted; 25°C, HBS-EP+; Biacore T200; remark: listed apart in the source

Sequence of human FcγRIIb (CD32b), histidine-tagged recombinant (human) (P31994 43-217): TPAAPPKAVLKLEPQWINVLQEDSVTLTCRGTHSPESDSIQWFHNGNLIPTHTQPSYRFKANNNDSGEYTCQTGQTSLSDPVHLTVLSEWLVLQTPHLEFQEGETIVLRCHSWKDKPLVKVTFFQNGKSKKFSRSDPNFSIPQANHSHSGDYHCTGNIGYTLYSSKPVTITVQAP
Sequence of human FcγRIIIa (CD16a) F158 allele, histidine-tagged recombinant (human) (P08637 17-208): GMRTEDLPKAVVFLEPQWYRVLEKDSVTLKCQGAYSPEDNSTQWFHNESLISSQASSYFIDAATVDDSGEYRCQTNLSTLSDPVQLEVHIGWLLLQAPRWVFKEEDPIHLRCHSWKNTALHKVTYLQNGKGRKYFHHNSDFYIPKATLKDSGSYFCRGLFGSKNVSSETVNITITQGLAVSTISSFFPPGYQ
Sequence of human FcγRIIIa (CD16a) V158 allele, histidine-tagged recombinant (human) (P08637 17-208): as above
Sequence of mouse FcγRI (CD64), histidine-tagged recombinant (mouse) (P26151 25-297): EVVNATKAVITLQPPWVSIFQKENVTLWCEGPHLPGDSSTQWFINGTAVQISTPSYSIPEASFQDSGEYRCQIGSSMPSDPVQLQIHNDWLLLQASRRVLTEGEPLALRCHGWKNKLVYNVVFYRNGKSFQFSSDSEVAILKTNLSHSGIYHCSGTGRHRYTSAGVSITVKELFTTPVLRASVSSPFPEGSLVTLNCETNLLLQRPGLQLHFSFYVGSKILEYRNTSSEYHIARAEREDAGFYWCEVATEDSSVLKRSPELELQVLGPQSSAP
Sequence of human FcγRIIIb (CD16b) NA2 allele, histidine-tagged recombinant (human) (O75015 17-200): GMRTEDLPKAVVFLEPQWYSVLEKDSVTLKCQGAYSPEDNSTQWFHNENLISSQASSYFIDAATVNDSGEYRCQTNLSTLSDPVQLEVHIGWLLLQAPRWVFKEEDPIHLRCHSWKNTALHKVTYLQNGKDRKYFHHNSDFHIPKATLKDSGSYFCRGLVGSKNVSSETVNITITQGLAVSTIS
Sequence of human FcγRIIa (CD32a) R131 allele, histidine-tagged recombinant (human) (P12318 34-217): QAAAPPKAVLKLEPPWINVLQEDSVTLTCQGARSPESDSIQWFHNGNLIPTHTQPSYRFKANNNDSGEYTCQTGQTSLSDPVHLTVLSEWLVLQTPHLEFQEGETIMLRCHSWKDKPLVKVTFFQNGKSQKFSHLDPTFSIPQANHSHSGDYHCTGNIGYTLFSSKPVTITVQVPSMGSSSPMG
Sequence of human FcγRI (CD64), histidine-tagged recombinant (human) (P12314 16-292): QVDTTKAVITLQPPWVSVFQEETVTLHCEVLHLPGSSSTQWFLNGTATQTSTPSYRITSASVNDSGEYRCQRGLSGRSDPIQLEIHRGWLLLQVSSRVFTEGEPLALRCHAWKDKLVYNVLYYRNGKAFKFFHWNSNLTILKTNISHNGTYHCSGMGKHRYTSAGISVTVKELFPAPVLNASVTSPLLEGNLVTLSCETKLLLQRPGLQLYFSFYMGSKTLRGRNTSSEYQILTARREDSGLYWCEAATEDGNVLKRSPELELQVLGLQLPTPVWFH

| mean normalised binding response (% of wild-type reference) [1] | mean response [2] | mean response [3] | mean response [4] | mean response [5] | mean response [6] | mean response [7] | mean response [8] | mean response [9] | Mean normalised luminescence (% of wild-type reference); Promega Fc effector bioassay, Jurkat NFAT-luciferase cells with the receptor + Raji cells, antibody 10 μg/mL [10] | Mean normalised luminescence (% of wild-type reference); Promega Fc effector bioassay, Jurkat NFAT-luciferase cells with the receptor + Raji cells, antibody 10 μg/mL [11] | Mean normalised luminescence (% of wild-type reference); Promega Fc effector bioassay, Jurkat NFAT-luciferase cells with the receptor + Raji cells, antibody 10 μg/mL [12] | mean response [13] | response [13] | Substance |
| --- | --- | --- | --- | --- | --- | --- | --- | --- | --- | --- | --- | --- | --- | --- |
| 118% | -1.7 RU | -2.4 RU | -5.5 RU | -2.3 RU | -3.5 RU | -3.5 RU | -4.8 RU | -4.2 RU |  |  |  |  |  | anti-CD52 IgG1 L234G/L235S/G236R (antibody) |
|  | -2.5 RU | -4 RU | -1.1 RU | -4.1 RU | 0.2 RU | -1.9 RU | -1.5 RU | -0.5 RU | 2.1% | 1.7% | 1.9% | 3 RU | 4.5 RU | anti-CD20 IgG1 L234T/L235Q/G236R (antibody) |
|  | -2.4 RU | -10.7 RU | -2.8 RU | -5.8 RU | -0.2 RU | -3.2 RU | -3 RU | -0.9 RU |  |  |  |  |  | anti-CD3 IgG1 L234T/L235Q/G236R (antibody) |
| 115% | 0.5 RU | -3.1 RU | 1.3 RU | -1.4 RU | -2.2 RU | -10.6 RU | 0.4 RU | 0.7 RU |  |  |  |  |  | anti-CD52 IgG1 L234T/L235Q/G236R (antibody) |
| 116% | -2.9 RU | -5.6 RU | -4.4 RU | -4.6 RU | -3.1 RU | -5.1 RU | -4.3 RU | -3.3 RU |  |  |  |  |  | anti-CD52 IgG1 L234S/L235T/G236R (antibody) |
|  | 0.7 RU |  |  | 2.4 RU |  |  |  |  | 2.1% | 1.7% |  |  |  | anti-CD20 IgG1 L234A/L235A/P329G (LALAPG) (antibody) |
| 105% | -0.8 RU |  |  | -2.1 RU |  | 33.7 RU |  |  |  |  |  |  |  | anti-CD52 IgG1 L234A/L235A/P329G (LALAPG) (antibody) |
| 103% |  |  |  | 50.4 RU |  | 431 RU |  |  |  |  |  |  |  | anti-CD52 IgG1 N297Q (aglycosyl) (antibody) |
| 119% | -2.1 RU | -1.3 RU | 2.4 RU | -2.5 RU | -4.2 RU | -20.3 RU | 2.6 RU | 2.2 RU |  |  |  |  |  | anti-CD52 IgG1 L234S/L235V/G236R (antibody) |
| 105% | -0.7 RU |  |  | 1.8 RU |  | 452 RU |  |  |  |  |  |  |  | anti-CD52 IgG1 L234A/L235A (LALA) (antibody) |
|  | -4.9 RU |  |  | -3.3 RU |  |  |  |  |  |  |  |  |  | anti-CD3 IgG1 L234A/L235A (LALA) (antibody) |
|  | -0.4 RU | 0.8 RU | -0.8 RU | 0.1 RU | 0.3 RU | -1.6 RU | 0.6 RU | 0 RU | 2.1% | 1.7% | 1.9% | 2.4 RU | 2.1 RU and 4.3 RU | anti-CD20 IgG1 L234S/L235V/G236R (antibody) |
| 118% | -3.4 RU | -2 RU | -0.1 RU | -3.9 RU | -8.7 RU | -20.7 RU | 0.8 RU | -1.9 RU |  |  |  |  |  | anti-CD52 IgG1 L234T/L235T/G236R (antibody) |
|  | -2.4 RU | -6.3 RU | 0.5 RU | -5.4 RU | 2.6 RU | -1.3 RU | -3 RU | 1.9 RU |  |  |  |  |  | anti-CD20 IgG1 L234S/L235T/G236R (antibody) |
|  | -3.5 RU | -8.6 RU | -3.3 RU | -5.5 RU | -2.8 RU | -3.1 RU | -4.4 RU | -2 RU |  |  |  |  |  | anti-CD3 IgG1 L234T/L235T/G236R (antibody) |
|  | -5.3 RU |  |  | -12.2 RU |  |  |  |  |  | 40.6% |  |  |  | anti-CD20 IgG1 L234A/L235A (LALA) (antibody) |
|  | -3.9 RU | 1 RU | -0.1 RU | -2.1 RU | 2.1 RU | -1.5 RU | -1.6 RU | 1 RU | 2.5% | 1.7% |  | 1.9 RU |  | anti-CD20 IgG1 L234G/L235S/G236R (antibody) |
|  | -5.1 RU | -11.3 RU | 3.9 RU | -7.5 RU | 1.4 RU | -5.2 RU | 4.7 RU | 3.3 RU |  |  |  |  |  | anti-CD3 IgG1 L234S/L235T/G236R (antibody) |
|  | -0.8 RU | -0.2 RU | 0.6 RU |  | 1.9 RU | -2.7 RU | -0.1 RU | 1.6 RU |  | 1.9% | 1.9% |  |  | anti-CD20 IgG1 L234T/L235T/G236R (antibody) |
|  | -4.8 RU | -12.7 RU | -4.2 RU | -8.1 RU | -3.4 RU | -5.4 RU | -4.8 RU | -3.4 RU |  |  |  |  |  | anti-CD3 IgG1 L234S/L235V/G236R (antibody) |
|  |  |  |  |  |  |  |  |  |  | 1.6% |  |  |  | anti-CD20 IgG1 N297Q (aglycosyl) (antibody) |
|  | -5.2 RU |  |  | -6.2 RU |  |  |  |  |  |  |  |  |  | anti-CD3 IgG1 L234A/L235A/P329G (LALAPG) (antibody) |
|  | -4.2 RU | -14.4 RU | -5.1 RU | -5.9 RU | -4.8 RU | -5.2 RU | -6.4 RU | -4.7 RU |  |  |  |  |  | anti-CD3 IgG1 L234G/L235S/G236R (antibody) |
